To fix the notation:
B1: VLE peptide (peptide)
peptide: VLEEEVELV
notes: synthetic 9-mer
B2: KLA peptide (peptide)
peptide: KLAVSLAET
notes: synthetic 9-mer
B3: VLS peptide (peptide)
peptide: VLSEQFTKI
notes: synthetic 9-mer
B4: ILQ peptide (peptide)
peptide: ILQKHGENV
notes: synthetic 9-mer
B5: HAL peptide (peptide)
peptide: HALEENVMV
notes: synthetic 9-mer
B6: SVLE peptide (peptide)
peptide: SVLEEEVEL
notes: synthetic 9-mer
B7: YAS peptide (peptide)
peptide: YASRDTYKL
notes: synthetic 9-mer
B8: SLAE peptide (peptide)
peptide: SLAETAGLI
notes: synthetic 9-mer
B9: VLT peptide (peptide)
peptide: VLTVSNSNV
notes: synthetic 9-mer
B10: ALE peptide (peptide)
peptide: ALEENVMVA
notes: synthetic 9-mer
B11: MAA peptide (peptide)
peptide: MAATEISVL
notes: synthetic 9-mer
B12: NTH peptide (peptide)
peptide: NTHTGTRPYK
notes: synthetic 10-mer
B13: AAA peptide (peptide)
peptide: AAAEEASTTK
notes: synthetic 10-mer
B14: GTM peptide (peptide)
peptide: GTMKIHILQK
notes: synthetic 10-mer
B15: ASG peptide (peptide)
peptide: ASGKGRRTRK
notes: synthetic 10-mer
B16: CSY peptide (peptide)
peptide: CSYASRDTYK
notes: synthetic 10-mer
B17: RMS peptide (peptide)
peptide: RMSSFNRHMK
notes: synthetic 10-mer
B18: GLI peptide (peptide)
peptide: GLIPTVLTLK
notes: synthetic 10-mer
B19: TVL peptide (peptide)
peptide: TVLTLKASFK
notes: synthetic 10-mer
B20: TVY peptide (peptide)
peptide: TVYKCSKCGK
notes: synthetic 10-mer
B21: SVL peptide (peptide)
peptide: SVLSEQFTK
notes: synthetic 9-mer
B22: KQL peptide (peptide)
peptide: KQLLNAHFRK
notes: synthetic 10-mer
B23: KLLF peptide (peptide)
peptide: KLLFIGTIK
notes: synthetic 9-mer
B24: RMM peptide (peptide)
peptide: RMMLVSAWL
notes: synthetic 9-mer

For one experiment, the target named is T1, HLA-A*02:01 with β2-microglobulin (human).
T1 construct: Soluble recombinant HLA used in the folding test and in tetramer reagents; also called HLA-A2
Description: folding test: HLA-monomer formation, gel filtration.
As to B1, the binding result is “binds”.

Take B2: the binding result was “binds”.

For B3, the binding result is given as “binds”.

Consider B4, for which the binding result is on record as “binds”.

On to B5, for which the binding result is on record as “binds”.

For B6, the binding result is given as “binds”.

Take B7: the binding result is reported as “binds”.

For B8, the binding result is “binds”.

Regarding B9, the binding result is “binds”.

Regarding B10, the binding result is “binds”.

The target of the next experiment is T1, HLA-A*02:01 with β2-microglobulin. Put plainly: folding test: HLA-monomer formation from HLA, β2-microglobulin and peptide, gel filtration.
Turning to B11, the binding result is “no binding (tested: 30 µM peptide)”.

The target in the next experiment is T2, HLA-A*11:01 with β2-microglobulin (human).
T2 construct: Soluble recombinant HLA used in the folding test and in tetramer reagents
Put plainly: folding test: HLA-monomer formation after 1, 3 and 7 days, gel filtration.
For the molecule B12, the binding result was “binds”.

With B13, the binding result is given as “binds”.

Turning to B14, the binding result is reported as “binds”.

On to B15, for which the binding result is listed as “binds”.

For B16, the binding result is “binds”.

On to B17, for which the binding result was “binds”.

In the case of B18, the binding result is on record as “binds”.

As for B19, the binding result is listed as “binds”.

Turning to B20, the binding result is listed as “binds”.

In the case of B21, the binding result was “binds”.

Consider B22, for which the binding result is listed as “binds”.

As for B23, the binding result was “binds”.

For the next experiment, the target named is HLA-A*24:02 with β2-microglobulin (human). Description: HLA tetramer reagent made of the RMM peptide and the HLA type, staining of induced CTLs, flow cytometry.
Take B24: the binding result is “binds”.

The target in the next experiment is T1, HLA-A*02:01 with β2-microglobulin. Described as above.
Regarding B24, the binding result is recorded as “binds”.

The values above are taken from patent US20170298109A1 (SAPPORO MEDICAL UNIVERSITY, published 2017).
